{
  "source": "paper PMC3816843",
  "binders": {"B1": {"name": "R4cXII-1t (XNA)", "RNA": "GGCUCGGCUGCCAGCAGGUCACGAGUCGCAGCGACUCGCUGAGGAUCCGAG", "modifications": "all C and U are 2'-fluoro; A and G ribo"}, "B2": {"name": "R4cXII-1 (XNA)", "RNA": "GGGAGGACGAUGCGGCCAAAUCUCGGCUGCCAGCAGGUCACGAGUCGCAAGAUAACAGACGACUCGCUGAGGAUCCGAGA", "modifications": "all C and U are 2'-fluoro; A and G ribo"}, "B3": {"name": "scrambled control RNA (XNA)", "RNA": "GGGGCAGCCGUGGACCGACUGCCGCAUGCCAUUGACAGUCCGAUGCCAGGC", "modifications": "all C and U are 2'-fluoro; A and G ribo"}},
  "key": {"[1]": {"molecular_target": "T1, Factor XIIa (alpha-FXIIa) (UniProt P00748;P00748 20-372;373-615)", "T1 sequence 1": "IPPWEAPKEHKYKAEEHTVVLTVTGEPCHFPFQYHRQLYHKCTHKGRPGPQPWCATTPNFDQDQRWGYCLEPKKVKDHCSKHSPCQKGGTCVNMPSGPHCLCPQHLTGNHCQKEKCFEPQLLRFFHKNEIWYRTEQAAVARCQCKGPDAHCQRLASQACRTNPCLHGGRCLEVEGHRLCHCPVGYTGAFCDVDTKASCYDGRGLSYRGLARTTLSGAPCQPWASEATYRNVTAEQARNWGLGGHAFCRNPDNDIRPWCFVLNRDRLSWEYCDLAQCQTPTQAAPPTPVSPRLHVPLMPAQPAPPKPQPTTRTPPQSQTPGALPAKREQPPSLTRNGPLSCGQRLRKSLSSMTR", "T1 sequence 2": "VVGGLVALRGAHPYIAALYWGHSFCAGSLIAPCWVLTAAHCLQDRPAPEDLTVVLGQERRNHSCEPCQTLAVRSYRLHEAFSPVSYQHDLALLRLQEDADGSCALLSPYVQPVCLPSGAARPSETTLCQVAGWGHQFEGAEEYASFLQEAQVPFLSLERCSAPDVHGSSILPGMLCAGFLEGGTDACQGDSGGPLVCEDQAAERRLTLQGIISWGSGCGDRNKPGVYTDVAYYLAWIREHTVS", "experiment": "double-filter nitrocellulose binding"}, "[2]": {"molecular_target": "T2, Factor XII (FXII, zymogen) (human, UniProt P00748 20-615)", "T2 sequence": "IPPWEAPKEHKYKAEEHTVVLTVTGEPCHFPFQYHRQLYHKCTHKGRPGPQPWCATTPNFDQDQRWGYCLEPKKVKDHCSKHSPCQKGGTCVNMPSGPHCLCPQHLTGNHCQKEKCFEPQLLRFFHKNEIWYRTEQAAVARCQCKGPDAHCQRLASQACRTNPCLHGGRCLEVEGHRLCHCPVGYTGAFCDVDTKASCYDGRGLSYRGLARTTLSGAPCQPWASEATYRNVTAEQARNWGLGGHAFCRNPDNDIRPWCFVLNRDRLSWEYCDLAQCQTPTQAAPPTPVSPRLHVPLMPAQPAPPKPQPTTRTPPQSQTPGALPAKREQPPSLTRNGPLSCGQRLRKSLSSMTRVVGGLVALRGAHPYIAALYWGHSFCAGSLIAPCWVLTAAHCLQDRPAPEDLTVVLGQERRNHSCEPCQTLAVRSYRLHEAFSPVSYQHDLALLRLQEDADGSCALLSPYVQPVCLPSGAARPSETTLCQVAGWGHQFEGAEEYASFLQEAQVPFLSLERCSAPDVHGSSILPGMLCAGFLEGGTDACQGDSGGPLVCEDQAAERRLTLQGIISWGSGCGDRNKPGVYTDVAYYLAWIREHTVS", "experiment": "double-filter nitrocellulose binding"}, "[3]": {"molecular_target": "T1, Factor XIIa (alpha-FXIIa)", "experiment": "double-filter nitrocellulose binding", "remark": "listed apart in the source"}, "[4]": {"molecular_target": "T2, Factor XII (FXII, zymogen)", "experiment": "double-filter nitrocellulose binding", "remark": "listed apart in the source"}, "[5]": {"molecular_target": "T1, Factor XIIa (alpha-FXIIa)", "experiment": "nitrocellulose filter binding"}, "[6]": {"molecular_target": "T2, Factor XII (FXII, zymogen)", "experiment": "nitrocellulose filter binding"}},
  "note": "Like-named read-outs stand apart in the source and are kept apart here.",
  "data": [
    {"binder": "B1", "values": [
      {"measurement": "Kd", "setting": "[1]", "result": "0.4 ± 0.02", "unit": "nM"},
      {"measurement": "Kd", "setting": "[2]", "result": "12.9 ± 2.06", "unit": "nM"}
    ]},
    {"binder": "B2", "values": [
      {"measurement": "Kd", "setting": "[3]", "result": "0.5 ± 0.2", "unit": "nM"},
      {"measurement": "Kd", "setting": "[4]", "result": "8.9 ± 1", "unit": "nM"}
    ]},
    {"binder": "B3", "values": [
      {"measurement": "binding result", "setting": "[5]", "result": "no binding"},
      {"measurement": "binding result", "setting": "[6]", "result": "no binding"}
    ]}
  ]
}
